# According to patent US20180009871A1 (INTARCIA THERAPEUTICS, published 2018):
# Where no end group is shown, it is not given here. [ ]: non-standard residue; d: D form. Aib = CC(C)(N)C(=O)O
# B1: Compound A2 (peptide)
# peptide: YSHGTFTSDYSKYLD[Aib]KSAQEFV[Aib]WLEDEPSSGAPPPS-OH
# modifications: N-terminus assumed
# SMILES: CC(C)C[C@H](NC(=O)[C@H](Cc1ccc(O)cc1)NC(=O)[C@H](CCCCN)NC(=O)[C@H](CO)NC(=O)[C@H](Cc1ccc(O)cc1)NC(=O)[C@H](CC(=O)O)NC(=O)[C@H](CO)NC(=O)[C@@H](NC(=O)[C@H](Cc1ccccc1)NC(=O)[C@@H](NC(=O)CNC(=O)[C@H](Cc1c[nH]cn1)NC(=O)[C@H](CO)NC(=O)[C@@H](N)Cc1ccc(O)cc1)[C@@H](C)O)[C@@H](C)O)C(=O)N[C@@H](CC(=O)O)C(=O)NC(C)(C)C(=O)N[C@@H](CCCCN)C(=O)N[C@@H](CO)C(=O)N[C@@H](C)C(=O)N[C@@H](CCC(N)=O)C(=O)N[C@@H](CCC(=O)O)C(=O)N[C@@H](Cc1ccccc1)C(=O)N[C@H](C(=O)NC(C)(C)C(=O)N[C@@H](Cc1c[nH]c2ccccc12)C(=O)N[C@@H](CC(C)C)C(=O)N[C@@H](CCC(=O)O)C(=O)N[C@@H](CC(=O)O)C(=O)N[C@@H](CCC(=O)O)C(=O)N1CCC[C@H]1C(=O)N[C@@H](CO)C(=O)N[C@@H](CO)C(=O)NCC(=O)N[C@@H](C)C(=O)N1CCC[C@H]1C(=O)N1CCC[C@H]1C(=O)N1CCC[C@H]1C(=O)N[C@@H](CO)C(=O)O)C(C)C
# B2: Compound A6 (peptide)
# peptide: WSQGTFTSDYSKYLD[Aib]KRAQEFV[Aib]WLEDEPSSGAPPPS-OH
# modifications: N-terminus assumed
# SMILES: CC(C)C[C@H](NC(=O)[C@H](Cc1ccc(O)cc1)NC(=O)[C@H](CCCCN)NC(=O)[C@H](CO)NC(=O)[C@H](Cc1ccc(O)cc1)NC(=O)[C@H](CC(=O)O)NC(=O)[C@H](CO)NC(=O)[C@@H](NC(=O)[C@H](Cc1ccccc1)NC(=O)[C@@H](NC(=O)CNC(=O)[C@H](CCC(N)=O)NC(=O)[C@H](CO)NC(=O)[C@@H](N)Cc1c[nH]c2ccccc12)[C@@H](C)O)[C@@H](C)O)C(=O)N[C@@H](CC(=O)O)C(=O)NC(C)(C)C(=O)N[C@@H](CCCCN)C(=O)N[C@@H](CCCNC(=N)N)C(=O)N[C@@H](C)C(=O)N[C@@H](CCC(N)=O)C(=O)N[C@@H](CCC(=O)O)C(=O)N[C@@H](Cc1ccccc1)C(=O)N[C@H](C(=O)NC(C)(C)C(=O)N[C@@H](Cc1c[nH]c2ccccc12)C(=O)N[C@@H](CC(C)C)C(=O)N[C@@H](CCC(=O)O)C(=O)N[C@@H](CC(=O)O)C(=O)N[C@@H](CCC(=O)O)C(=O)N1CCC[C@H]1C(=O)N[C@@H](CO)C(=O)N[C@@H](CO)C(=O)NCC(=O)N[C@@H](C)C(=O)N1CCC[C@H]1C(=O)N1CCC[C@H]1C(=O)N1CCC[C@H]1C(=O)N[C@@H](CO)C(=O)O)C(C)C
# B3: Compound A103 (peptide)
# peptide: YSHGTFTSDYSKYLD[Aib]ARAQEFV[Aib]WLEDEPSSGAPPPS-OH
# modifications: N-terminus assumed
# SMILES: CC(C)C[C@H](NC(=O)[C@H](Cc1ccc(O)cc1)NC(=O)[C@H](CCCCN)NC(=O)[C@H](CO)NC(=O)[C@H](Cc1ccc(O)cc1)NC(=O)[C@H](CC(=O)O)NC(=O)[C@H](CO)NC(=O)[C@@H](NC(=O)[C@H](Cc1ccccc1)NC(=O)[C@@H](NC(=O)CNC(=O)[C@H](Cc1c[nH]cn1)NC(=O)[C@H](CO)NC(=O)[C@@H](N)Cc1ccc(O)cc1)[C@@H](C)O)[C@@H](C)O)C(=O)N[C@@H](CC(=O)O)C(=O)NC(C)(C)C(=O)N[C@@H](C)C(=O)N[C@@H](CCCNC(=N)N)C(=O)N[C@@H](C)C(=O)N[C@@H](CCC(N)=O)C(=O)N[C@@H](CCC(=O)O)C(=O)N[C@@H](Cc1ccccc1)C(=O)N[C@H](C(=O)NC(C)(C)C(=O)N[C@@H](Cc1c[nH]c2ccccc12)C(=O)N[C@@H](CC(C)C)C(=O)N[C@@H](CCC(=O)O)C(=O)N[C@@H](CC(=O)O)C(=O)N[C@@H](CCC(=O)O)C(=O)N1CCC[C@H]1C(=O)N[C@@H](CO)C(=O)N[C@@H](CO)C(=O)NCC(=O)N[C@@H](C)C(=O)N1CCC[C@H]1C(=O)N1CCC[C@H]1C(=O)N1CCC[C@H]1C(=O)N[C@@H](CO)C(=O)O)C(C)C
# B4: Compound A101 (peptide)
# peptide: YGHGTFTSDHSKYLD[Aib]KRAQEFVKWLEDE-OH
# modifications: N-terminus assumed
# SMILES: CC(C)C[C@H](NC(=O)[C@H](Cc1c[nH]c2ccccc12)NC(=O)[C@H](CCCCN)NC(=O)[C@@H](NC(=O)[C@H](Cc1ccccc1)NC(=O)[C@H](CCC(=O)O)NC(=O)[C@H](CCC(N)=O)NC(=O)[C@H](C)NC(=O)[C@H](CCCNC(=N)N)NC(=O)[C@H](CCCCN)NC(=O)C(C)(C)NC(=O)[C@H](CC(=O)O)NC(=O)[C@H](CC(C)C)NC(=O)[C@H](Cc1ccc(O)cc1)NC(=O)[C@H](CCCCN)NC(=O)[C@H](CO)NC(=O)[C@H](Cc1c[nH]cn1)NC(=O)[C@H](CC(=O)O)NC(=O)[C@H](CO)NC(=O)[C@@H](NC(=O)[C@H](Cc1ccccc1)NC(=O)[C@@H](NC(=O)CNC(=O)[C@H](Cc1c[nH]cn1)NC(=O)CNC(=O)[C@@H](N)Cc1ccc(O)cc1)[C@@H](C)O)[C@@H](C)O)C(C)C)C(=O)N[C@@H](CCC(=O)O)C(=O)N[C@@H](CC(=O)O)C(=O)N[C@@H](CCC(=O)O)C(=O)O
# B5: Compound A99 (peptide)
# peptide: YSHGTFTSDYSKYLD[Aib]KRAQEFV[Aib]WLEDEPSSGAPPPS-OH
# modifications: N-terminus assumed
# SMILES: CC(C)C[C@H](NC(=O)[C@H](Cc1ccc(O)cc1)NC(=O)[C@H](CCCCN)NC(=O)[C@H](CO)NC(=O)[C@H](Cc1ccc(O)cc1)NC(=O)[C@H](CC(=O)O)NC(=O)[C@H](CO)NC(=O)[C@@H](NC(=O)[C@H](Cc1ccccc1)NC(=O)[C@@H](NC(=O)CNC(=O)[C@H](Cc1c[nH]cn1)NC(=O)[C@H](CO)NC(=O)[C@@H](N)Cc1ccc(O)cc1)[C@@H](C)O)[C@@H](C)O)C(=O)N[C@@H](CC(=O)O)C(=O)NC(C)(C)C(=O)N[C@@H](CCCCN)C(=O)N[C@@H](CCCNC(=N)N)C(=O)N[C@@H](C)C(=O)N[C@@H](CCC(N)=O)C(=O)N[C@@H](CCC(=O)O)C(=O)N[C@@H](Cc1ccccc1)C(=O)N[C@H](C(=O)NC(C)(C)C(=O)N[C@@H](Cc1c[nH]c2ccccc12)C(=O)N[C@@H](CC(C)C)C(=O)N[C@@H](CCC(=O)O)C(=O)N[C@@H](CC(=O)O)C(=O)N[C@@H](CCC(=O)O)C(=O)N1CCC[C@H]1C(=O)N[C@@H](CO)C(=O)N[C@@H](CO)C(=O)NCC(=O)N[C@@H](C)C(=O)N1CCC[C@H]1C(=O)N1CCC[C@H]1C(=O)N1CCC[C@H]1C(=O)N[C@@H](CO)C(=O)O)C(C)C
# B6: Compound A102 (peptide)
# peptide: YSHGTFTSDYSKWLD[Aib]KRAQEFVKWLEDE-OH
# modifications: N-terminus assumed
# SMILES: CC(C)C[C@H](NC(=O)[C@H](Cc1c[nH]c2ccccc12)NC(=O)[C@H](CCCCN)NC(=O)[C@@H](NC(=O)[C@H](Cc1ccccc1)NC(=O)[C@H](CCC(=O)O)NC(=O)[C@H](CCC(N)=O)NC(=O)[C@H](C)NC(=O)[C@H](CCCNC(=N)N)NC(=O)[C@H](CCCCN)NC(=O)C(C)(C)NC(=O)[C@H](CC(=O)O)NC(=O)[C@H](CC(C)C)NC(=O)[C@H](Cc1c[nH]c2ccccc12)NC(=O)[C@H](CCCCN)NC(=O)[C@H](CO)NC(=O)[C@H](Cc1ccc(O)cc1)NC(=O)[C@H](CC(=O)O)NC(=O)[C@H](CO)NC(=O)[C@@H](NC(=O)[C@H](Cc1ccccc1)NC(=O)[C@@H](NC(=O)CNC(=O)[C@H](Cc1c[nH]cn1)NC(=O)[C@H](CO)NC(=O)[C@@H](N)Cc1ccc(O)cc1)[C@@H](C)O)[C@@H](C)O)C(C)C)C(=O)N[C@@H](CCC(=O)O)C(=O)N[C@@H](CC(=O)O)C(=O)N[C@@H](CCC(=O)O)C(=O)O
# B7: Compound A100 (peptide)
# peptide: YSHGTFTSDYSKYLD[Aib]KRAQEFV[Aib]WLEDE-OH
# modifications: N-terminus assumed
# SMILES: CC(C)C[C@H](NC(=O)[C@H](Cc1ccc(O)cc1)NC(=O)[C@H](CCCCN)NC(=O)[C@H](CO)NC(=O)[C@H](Cc1ccc(O)cc1)NC(=O)[C@H](CC(=O)O)NC(=O)[C@H](CO)NC(=O)[C@@H](NC(=O)[C@H](Cc1ccccc1)NC(=O)[C@@H](NC(=O)CNC(=O)[C@H](Cc1c[nH]cn1)NC(=O)[C@H](CO)NC(=O)[C@@H](N)Cc1ccc(O)cc1)[C@@H](C)O)[C@@H](C)O)C(=O)N[C@@H](CC(=O)O)C(=O)NC(C)(C)C(=O)N[C@@H](CCCCN)C(=O)N[C@@H](CCCNC(=N)N)C(=O)N[C@@H](C)C(=O)N[C@@H](CCC(N)=O)C(=O)N[C@@H](CCC(=O)O)C(=O)N[C@@H](Cc1ccccc1)C(=O)N[C@H](C(=O)NC(C)(C)C(=O)N[C@@H](Cc1c[nH]c2ccccc12)C(=O)N[C@@H](CC(C)C)C(=O)N[C@@H](CCC(=O)O)C(=O)N[C@@H](CC(=O)O)C(=O)N[C@@H](CCC(=O)O)C(=O)O)C(C)C
# Target: T1, human glucagon receptor (GCGR) (human, UniProt P47871 26-477)
# Experiment: cell-based or functional assay
row,Binder,hGCGR pEC50 (cAMP) mean (n = 9): 11 point curve starting at 1 uM
1,B1,11.7 pEC50
2,B2,11.7 pEC50

# Target: T2, human GLP-1 receptor (GLP-1R) (human, UniProt P43220 24-463)
# T2 sequence (P43220 24-463): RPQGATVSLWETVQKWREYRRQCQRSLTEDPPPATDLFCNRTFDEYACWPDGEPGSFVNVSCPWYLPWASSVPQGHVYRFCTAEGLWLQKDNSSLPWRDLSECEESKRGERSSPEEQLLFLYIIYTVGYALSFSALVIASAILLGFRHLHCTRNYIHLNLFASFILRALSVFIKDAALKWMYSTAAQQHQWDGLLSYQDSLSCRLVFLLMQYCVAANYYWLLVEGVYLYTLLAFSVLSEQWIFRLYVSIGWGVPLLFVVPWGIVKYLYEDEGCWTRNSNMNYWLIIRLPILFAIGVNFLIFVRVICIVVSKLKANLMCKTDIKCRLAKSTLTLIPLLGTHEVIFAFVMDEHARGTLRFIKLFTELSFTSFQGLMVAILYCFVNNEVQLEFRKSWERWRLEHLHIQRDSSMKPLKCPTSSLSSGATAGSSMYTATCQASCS
# Experiment: cell-based or functional assay
row,Binder,hGLP1 pEC50 (cAMP) mean (n = 9): 11 point curve starting at 500 uM
1,B1,5.4 pEC50
2,B2,5.3 pEC50

# Target: T1, human glucagon receptor (GCGR)
# Experiment: cell-based or functional assay
# Remark: another data set of the same source
row,Binder,hGCGR pEC50 (cAMP) mean (n = 3): 11 point curve starting at 1 nM
1,B3,11.9 pEC50
2,B4,11.3 pEC50
3,B5,12.5 pEC50
4,B6,12.4 pEC50
5,B7,12.6 pEC50

# Target: T2, human GLP-1 receptor (GLP-1R)
# Experiment: cell-based or functional assay
# Remark: another data set of the same source
row,Binder,hGLP1 pEC50 (cAMP) mean (n = 3): 11 point curve starting at 1 nM
1,B3,< 9 pEC50
2,B4,< 9 pEC50
3,B5,< 9 pEC50
4,B6,< 9 pEC50
5,B7,< 9 pEC50
